Data reported in article PMC11851098 (Nucleic Acids Research, 2025).

T1: Suv3 helicase (UniProt Q8IYB8 23-786, Alexa 647 label (site not stated) in the MST assay)
T1 sequence (looked up): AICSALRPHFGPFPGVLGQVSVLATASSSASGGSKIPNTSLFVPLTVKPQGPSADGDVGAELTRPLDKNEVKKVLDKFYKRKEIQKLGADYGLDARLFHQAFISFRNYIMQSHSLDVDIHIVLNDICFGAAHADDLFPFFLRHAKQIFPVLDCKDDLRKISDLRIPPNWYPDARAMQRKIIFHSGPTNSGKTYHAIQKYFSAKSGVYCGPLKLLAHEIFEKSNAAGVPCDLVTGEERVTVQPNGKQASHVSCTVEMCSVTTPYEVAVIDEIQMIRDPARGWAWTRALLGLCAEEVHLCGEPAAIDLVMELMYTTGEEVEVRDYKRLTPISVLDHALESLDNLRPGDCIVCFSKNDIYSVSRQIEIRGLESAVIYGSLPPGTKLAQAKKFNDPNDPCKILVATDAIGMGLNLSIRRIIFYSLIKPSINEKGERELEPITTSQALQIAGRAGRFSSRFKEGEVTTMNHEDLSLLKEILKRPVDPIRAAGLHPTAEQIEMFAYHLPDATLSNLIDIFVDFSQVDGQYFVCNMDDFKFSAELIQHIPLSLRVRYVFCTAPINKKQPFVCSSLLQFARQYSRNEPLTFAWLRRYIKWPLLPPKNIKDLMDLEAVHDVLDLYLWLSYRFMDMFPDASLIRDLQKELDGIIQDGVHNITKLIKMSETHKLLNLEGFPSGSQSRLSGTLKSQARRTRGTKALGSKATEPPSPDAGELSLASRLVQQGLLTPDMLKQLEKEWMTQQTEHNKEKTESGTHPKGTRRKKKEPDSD


Tests used:
[1] = target: the molecule itself; experiment: SEC
[2] = target: T1, Suv3 helicase; experiment: MST
[3] = target: the molecule itself; experiment: SAXS

Kd [2] [µM]	Binder	stoichiometry N [1]	stoichiometry N [3]
0.297 ± 0.08	human polynucleotide phosphorylase (hPNPase), wild type, residues 46-783 (enzyme, UniProt Q8TCS8 46-783, looked up) AVAVDLGNRKLEISSGKLARFADGSAVVQSGDTAVMVTAVSKTKPSPSQFMPLVVDYRQKAAAAGRIPTNYLRREIGTSDKEILTSRIIDRSIRPLFPAGYFYDTQVLCNLLAVDGVNEPDVLAINGASVALSLSDIPWNGPVGAVRIGIIDGEYVVNPTRKEMSSSTLNLVVAGAPKSQIVMLEASAENILQQDFCHAIKVGVKYTQQIIQGIQQLVKETGVTKRTPQKLFTPSPEIVKYTHKLAMERLYAVFTDYEHDKVSRDEAVNKIRLDTEEQLKEKFPEADPYEIIESFNVVAKEVFRSIVLNEYKRCDGRDLTSLRNVSCEVDMFKTLHGSALFQRGQTQVLCTVTFDSLESGIKSDQVITAINGIKDKNFMLHYEFPPYATNEIGKVTGLNRRELGHGALAEKALYPVIPRDFPFTIRVTSEVLESNGSSSMASACGGSLALMDSGVPISSAVAGVAIGLVTKTDPEKGEIEDYRLLTDILGIEDYNGDMDFKIAGTNKGITALQADIKLPGIPIKIVMEAIQQASVAKKEILQIMNKTISKPRASRKENGPVVETVQVPLSKRAKFVGPGGYNLKKLQAETGVTISQVDEETFSVFAPTPSAMHEARDFITEICKDDQEQQLEFGAVYTATITEIRDTGVMVKLYPNMTAVLLHNTQLDQRKIKHPTALGLEVGQEIQVKYFGRDPADGRMRLSRKVLQSPATTVVRTLNDRSSIVMGEPISQSSSNSQ	3	–
–	hPNPase S484A mutant (inactive) (enzyme, human, UniProt Q8TCS8 46-783, looked up) AVAVDLGNRKLEISSGKLARFADGSAVVQSGDTAVMVTAVSKTKPSPSQFMPLVVDYRQKAAAAGRIPTNYLRREIGTSDKEILTSRIIDRSIRPLFPAGYFYDTQVLCNLLAVDGVNEPDVLAINGASVALSLSDIPWNGPVGAVRIGIIDGEYVVNPTRKEMSSSTLNLVVAGAPKSQIVMLEASAENILQQDFCHAIKVGVKYTQQIIQGIQQLVKETGVTKRTPQKLFTPSPEIVKYTHKLAMERLYAVFTDYEHDKVSRDEAVNKIRLDTEEQLKEKFPEADPYEIIESFNVVAKEVFRSIVLNEYKRCDGRDLTSLRNVSCEVDMFKTLHGSALFQRGQTQVLCTVTFDSLESGIKSDQVITAINGIKDKNFMLHYEFPPYATNEIGKVTGLNRRELGHGALAEKALYPVIPRDFPFTIRVTSEVLESNGSSAMASACGGSLALMDSGVPISSAVAGVAIGLVTKTDPEKGEIEDYRLLTDILGIEDYNGDMDFKIAGTNKGITALQADIKLPGIPIKIVMEAIQQASVAKKEILQIMNKTISKPRASRKENGPVVETVQVPLSKRAKFVGPGGYNLKKLQAETGVTISQVDEETFSVFAPTPSAMHEARDFITEICKDDQEQQLEFGAVYTATITEIRDTGVMVKLYPNMTAVLLHNTQLDQRKIKHPTALGLEVGQEIQVKYFGRDPADGRMRLSRKVLQSPATTVVRTLNDRSSIVMGEPISQSSSNSQ	–	3
–	hPNPase G499R-S484A double mutant, residues 46-783 (enzyme, human, UniProt Q8TCS8 46-783, looked up) AVAVDLGNRKLEISSGKLARFADGSAVVQSGDTAVMVTAVSKTKPSPSQFMPLVVDYRQKAAAAGRIPTNYLRREIGTSDKEILTSRIIDRSIRPLFPAGYFYDTQVLCNLLAVDGVNEPDVLAINGASVALSLSDIPWNGPVGAVRIGIIDGEYVVNPTRKEMSSSTLNLVVAGAPKSQIVMLEASAENILQQDFCHAIKVGVKYTQQIIQGIQQLVKETGVTKRTPQKLFTPSPEIVKYTHKLAMERLYAVFTDYEHDKVSRDEAVNKIRLDTEEQLKEKFPEADPYEIIESFNVVAKEVFRSIVLNEYKRCDGRDLTSLRNVSCEVDMFKTLHGSALFQRGQTQVLCTVTFDSLESGIKSDQVITAINGIKDKNFMLHYEFPPYATNEIGKVTGLNRRELGHGALAEKALYPVIPRDFPFTIRVTSEVLESNGSSAMASACGGSLALMDSRVPISSAVAGVAIGLVTKTDPEKGEIEDYRLLTDILGIEDYNGDMDFKIAGTNKGITALQADIKLPGIPIKIVMEAIQQASVAKKEILQIMNKTISKPRASRKENGPVVETVQVPLSKRAKFVGPGGYNLKKLQAETGVTISQVDEETFSVFAPTPSAMHEARDFITEICKDDQEQQLEFGAVYTATITEIRDTGVMVKLYPNMTAVLLHNTQLDQRKIKHPTALGLEVGQEIQVKYFGRDPADGRMRLSRKVLQSPATTVVRTLNDRSSIVMGEPISQSSSNSQ	3	–
–	hPNPase D713Y-S484A double mutant, residues 46-783 (enzyme, human, UniProt Q8TCS8 46-783, looked up) AVAVDLGNRKLEISSGKLARFADGSAVVQSGDTAVMVTAVSKTKPSPSQFMPLVVDYRQKAAAAGRIPTNYLRREIGTSDKEILTSRIIDRSIRPLFPAGYFYDTQVLCNLLAVDGVNEPDVLAINGASVALSLSDIPWNGPVGAVRIGIIDGEYVVNPTRKEMSSSTLNLVVAGAPKSQIVMLEASAENILQQDFCHAIKVGVKYTQQIIQGIQQLVKETGVTKRTPQKLFTPSPEIVKYTHKLAMERLYAVFTDYEHDKVSRDEAVNKIRLDTEEQLKEKFPEADPYEIIESFNVVAKEVFRSIVLNEYKRCDGRDLTSLRNVSCEVDMFKTLHGSALFQRGQTQVLCTVTFDSLESGIKSDQVITAINGIKDKNFMLHYEFPPYATNEIGKVTGLNRRELGHGALAEKALYPVIPRDFPFTIRVTSEVLESNGSSAMASACGGSLALMDSGVPISSAVAGVAIGLVTKTDPEKGEIEDYRLLTDILGIEDYNGDMDFKIAGTNKGITALQADIKLPGIPIKIVMEAIQQASVAKKEILQIMNKTISKPRASRKENGPVVETVQVPLSKRAKFVGPGGYNLKKLQAETGVTISQVDEETFSVFAPTPSAMHEARDFITEICKDDQEQQLEFGAVYTATITEIRDTGVMVKLYPNMTAVLLHNTQLYQRKIKHPTALGLEVGQEIQVKYFGRDPADGRMRLSRKVLQSPATTVVRTLNDRSSIVMGEPISQSSSNSQ	3	–
–	hPNPase P467S-S484A double mutant, residues 46-783 (enzyme, human, UniProt Q8TCS8 46-783, looked up) AVAVDLGNRKLEISSGKLARFADGSAVVQSGDTAVMVTAVSKTKPSPSQFMPLVVDYRQKAAAAGRIPTNYLRREIGTSDKEILTSRIIDRSIRPLFPAGYFYDTQVLCNLLAVDGVNEPDVLAINGASVALSLSDIPWNGPVGAVRIGIIDGEYVVNPTRKEMSSSTLNLVVAGAPKSQIVMLEASAENILQQDFCHAIKVGVKYTQQIIQGIQQLVKETGVTKRTPQKLFTPSPEIVKYTHKLAMERLYAVFTDYEHDKVSRDEAVNKIRLDTEEQLKEKFPEADPYEIIESFNVVAKEVFRSIVLNEYKRCDGRDLTSLRNVSCEVDMFKTLHGSALFQRGQTQVLCTVTFDSLESGIKSDQVITAINGIKDKNFMLHYEFPPYATNEIGKVTGLNRRELGHGALAEKALYPVIPRDFSFTIRVTSEVLESNGSSAMASACGGSLALMDSGVPISSAVAGVAIGLVTKTDPEKGEIEDYRLLTDILGIEDYNGDMDFKIAGTNKGITALQADIKLPGIPIKIVMEAIQQASVAKKEILQIMNKTISKPRASRKENGPVVETVQVPLSKRAKFVGPGGYNLKKLQAETGVTISQVDEETFSVFAPTPSAMHEARDFITEICKDDQEQQLEFGAVYTATITEIRDTGVMVKLYPNMTAVLLHNTQLDQRKIKHPTALGLEVGQEIQVKYFGRDPADGRMRLSRKVLQSPATTVVRTLNDRSSIVMGEPISQSSSNSQ	3	–
3.89 ± 0.545	hPNPase D713Y mutant, residues 46-783 (enzyme, human, UniProt Q8TCS8 46-783, looked up) AVAVDLGNRKLEISSGKLARFADGSAVVQSGDTAVMVTAVSKTKPSPSQFMPLVVDYRQKAAAAGRIPTNYLRREIGTSDKEILTSRIIDRSIRPLFPAGYFYDTQVLCNLLAVDGVNEPDVLAINGASVALSLSDIPWNGPVGAVRIGIIDGEYVVNPTRKEMSSSTLNLVVAGAPKSQIVMLEASAENILQQDFCHAIKVGVKYTQQIIQGIQQLVKETGVTKRTPQKLFTPSPEIVKYTHKLAMERLYAVFTDYEHDKVSRDEAVNKIRLDTEEQLKEKFPEADPYEIIESFNVVAKEVFRSIVLNEYKRCDGRDLTSLRNVSCEVDMFKTLHGSALFQRGQTQVLCTVTFDSLESGIKSDQVITAINGIKDKNFMLHYEFPPYATNEIGKVTGLNRRELGHGALAEKALYPVIPRDFPFTIRVTSEVLESNGSSSMASACGGSLALMDSGVPISSAVAGVAIGLVTKTDPEKGEIEDYRLLTDILGIEDYNGDMDFKIAGTNKGITALQADIKLPGIPIKIVMEAIQQASVAKKEILQIMNKTISKPRASRKENGPVVETVQVPLSKRAKFVGPGGYNLKKLQAETGVTISQVDEETFSVFAPTPSAMHEARDFITEICKDDQEQQLEFGAVYTATITEIRDTGVMVKLYPNMTAVLLHNTQLYQRKIKHPTALGLEVGQEIQVKYFGRDPADGRMRLSRKVLQSPATTVVRTLNDRSSIVMGEPISQSSSNSQ	–	3
0.474 ± 0.07	hPNPase G499R mutant, residues 46-783 (enzyme, human, UniProt Q8TCS8 46-783, looked up) AVAVDLGNRKLEISSGKLARFADGSAVVQSGDTAVMVTAVSKTKPSPSQFMPLVVDYRQKAAAAGRIPTNYLRREIGTSDKEILTSRIIDRSIRPLFPAGYFYDTQVLCNLLAVDGVNEPDVLAINGASVALSLSDIPWNGPVGAVRIGIIDGEYVVNPTRKEMSSSTLNLVVAGAPKSQIVMLEASAENILQQDFCHAIKVGVKYTQQIIQGIQQLVKETGVTKRTPQKLFTPSPEIVKYTHKLAMERLYAVFTDYEHDKVSRDEAVNKIRLDTEEQLKEKFPEADPYEIIESFNVVAKEVFRSIVLNEYKRCDGRDLTSLRNVSCEVDMFKTLHGSALFQRGQTQVLCTVTFDSLESGIKSDQVITAINGIKDKNFMLHYEFPPYATNEIGKVTGLNRRELGHGALAEKALYPVIPRDFPFTIRVTSEVLESNGSSSMASACGGSLALMDSRVPISSAVAGVAIGLVTKTDPEKGEIEDYRLLTDILGIEDYNGDMDFKIAGTNKGITALQADIKLPGIPIKIVMEAIQQASVAKKEILQIMNKTISKPRASRKENGPVVETVQVPLSKRAKFVGPGGYNLKKLQAETGVTISQVDEETFSVFAPTPSAMHEARDFITEICKDDQEQQLEFGAVYTATITEIRDTGVMVKLYPNMTAVLLHNTQLDQRKIKHPTALGLEVGQEIQVKYFGRDPADGRMRLSRKVLQSPATTVVRTLNDRSSIVMGEPISQSSSNSQ	–	3
